Assay results reported in patent CN101022829A (GENENTECH INC, dated 2007).

Tests used:
human CD20 (human) [1] = target: T1, human CD20 (human) (UniProt P11836); assay: Scatchard, competition with 125I-2H7.v16 on WIL2-S cells, n=3
T1 sequence (looked up): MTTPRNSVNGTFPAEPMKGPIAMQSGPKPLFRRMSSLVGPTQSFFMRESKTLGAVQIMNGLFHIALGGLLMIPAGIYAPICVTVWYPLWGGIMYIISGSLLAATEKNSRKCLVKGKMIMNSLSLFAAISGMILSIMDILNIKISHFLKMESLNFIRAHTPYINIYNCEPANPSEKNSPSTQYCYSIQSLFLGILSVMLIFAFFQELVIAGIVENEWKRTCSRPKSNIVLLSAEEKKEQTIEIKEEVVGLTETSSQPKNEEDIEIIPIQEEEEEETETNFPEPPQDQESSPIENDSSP

human CD20 (human) [2] = target: T1, human CD20 (human); assay: cell-based or functional assay
human CD20 [3] = target: T2, human CD20 (human, UniProt P11836 1-297); assay: cell ELISA, WIL2-S; v16 as comparator, normalised to chimera
T2 construct: whole, on cells; also called Bp35
T2 sequence (looked up): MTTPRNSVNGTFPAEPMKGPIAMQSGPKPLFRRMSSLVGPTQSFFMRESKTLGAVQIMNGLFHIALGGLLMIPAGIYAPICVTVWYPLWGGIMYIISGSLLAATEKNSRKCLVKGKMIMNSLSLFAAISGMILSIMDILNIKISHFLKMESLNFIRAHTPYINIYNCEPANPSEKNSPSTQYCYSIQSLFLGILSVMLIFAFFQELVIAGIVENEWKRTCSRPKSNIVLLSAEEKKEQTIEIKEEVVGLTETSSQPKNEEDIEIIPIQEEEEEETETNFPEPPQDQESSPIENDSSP

human CD20 [4] = target: T2, human CD20; assay: Scatchard, competition with 125I-2H7.v16 on WIL2-S cells, n=4

Molecule: RITUXAN (rituximab) (antibody)
- Kd (human CD20 (human) [1]): 0.99 nM
- ADCC, EC50(variant)/EC50(2H7.v16) (human CD20 (human) [2]): 5.3
- ADCC, EC50(variant)/EC50(RITUXAN) (human CD20 (human) [2]): 1
- CDC, EC50(variant)/EC50(RITUXAN) (human CD20 (human) [2]): 1

B1: 2H7.v138 (antibody, human IgG1, kappa, V domains shown)
VH: EVQLVESGGGLVQPGGSLRLSCAASGYTFTSYNMHWVRQAPGKGLEWVGAIYPGNGATSYNQKFKGRFTISVDKSKNTLYLQMNSLRAEDTAVYYCARVVYYSASYWYFDVWGQGTLVTVSS
VL: DIQMTQSPSSLSASVGDRVTITCRASSSVSYLHWYQQKPGKAPKPLIYAPSNLASGVPSRFSGSGSGTDFTLTISSLQPEDFATYYCQQWAFNPPTFGQGTKVEIKR
- relative binding (ratio to v6.8) (human CD20 [3]): 1.2

B2: 2H7.v73 (antibody, V domains shown)
VH: EVQLVESGGGLVQPGGSLRLSCAASGYTFTSYNMHWVRQAPGKGLEWVGAIYPGNGDTSYNQKFKGRFTISVDKSKNTLYLQMNSLRAEDTAVYYCARVVYYSASYWYFDVWGQGTLVTVSS
VL: DIQMTQSPSSLSASVGDRVTITCRASSSVSYLHWYQQKPGKAPKPLIYAPSNLASGVPSRFSGSGSGTDFTLTISSLQPEDFATYYCQQWSFNPPTFGQGTKVEIKR
- Kd (human CD20 [4]): 1.22 nM
